Assay results taken from US20240270826A1 (NATIONAL RESEARCH COUNCIL OF CANADA, published 2024).

B1: NRCoV2-05 VHH (VHH)
VHH: EVKLVQSGGGLVQPGGSLRLSCAASGFIFSNYAMNWVRQAPGKGLEWVSGINSGGGDTRYADSVKGRFTVSRDNAKNTLYLQMNSLKPEDTGVYYCSKGPVSSYYGSGYDYRGQGTQVTVSS
B2: NRCoV2-S2A4 VHH (VHH)
VHH: QVQLVQSGGGLVQAGGSLRLSCAVSGSPFRSNVMEWYRQAPGKQRELVASISTGGSRTYTDSVKGRFTISRDNAKNEAFLQMNSLKPEDTAVYYCHAAARDSHGIYLLDTWGQGTQVTVSS
B3: NRCoV2-SR02 VHH (VHH)
VHH: EVQLVDSGGGLVQAGGSLRLSCTASEFTLNYYSIGWFRQSPGKEREGVSCIRYSGGGIDYADSVKGRFTISRDNAKNTVYLTMNSLKPEDTAVYYCAADRLYSRACPTAGGRNYWGQGTQVTVSS
B4: NRCoV2-SR04 VHH (VHH)
VHH: QVQLVESGGGLVQAGGSLRLSCAASGRTFSSHTVGWYRQAPGKQRDLVAAISMGGNTNYADYADSVKGRFTISRDNAKNTLYLQMNSLKPEDTAVYYCNTAALVGNRLLPMATITWGQGTQVTVSS
B5: NRCoV2-07 VHH (VHH)
VHH: QVQLVQSGGGLVQPGGSLRLSCAASGVTLDYYAIGWFRQAPGKEREAVSCISSNGRRNHYVASVRGRFTISRDNAKSTVYLQMNSLKPEDTAVYYCAAVQDVHGDNYYCTSPNEYNVWGQGTQVTVSS
B6: NRCoV2-18 VHH (VHH)
VHH: EVQLVESGGGLVQAGGSLRLSCVASGITISGYNMAWWRQTRGKQTERVAFINSGGSTTYSDSVKGRFTISRDNGKNTAYLQMNSLNAEDTADYFCSLHTSHDYWGQGTQVTVSS
B7: NRCoV2-20 VHH (VHH)
VHH: EVQLQQSGGGLVQPGGSLRLSCAASGRTFSNYVVGWFRQAPQAPGKDHEFVAVISGSDTETYYADSVKGRFTISRDNAKNTVYLQMNSLKPEDTAVYYCAADRGMSYYYTRATEYYYWGQGTQVTVSS
B8: NRCoV2-1d VHH (VHH)
VHH: EVQLVESGGGSVQPGGSLRLSCAASGSTLDYYAIGWFRQAPGKEREWVSSVSSSDGNTLYADSVKGRFTISRDNAKNTVYLQMNSLKAEDTAVYVCAADYSMRPFAVGRWHRDYEYWGQGTQVTVSS
B9: NRCoV2-SR01 VHH (VHH)
VHH: EVQLVQSGGGSVQAGGSLRLSCVASGFTFDNYAIGWFRQAPGKEREGVSCISGNGGVTIYADSVKGRFTISRDNAKNLVYLQMNSLKPEDTAVYYCAATGIRSTWSVYGCSRLAGPYDYWGQGTQVTVSS
B10: NRCoV2-SR03 VHH (VHH)
VHH: AVQLVDSGGGLVQAGGSLRLSCAASGSIFSNNHMGWYRQAPGKQRELVAAISSGGKTNYADFAKGRFTISRDNAKNMVYLQMNSLKPEDTAVYYCNRGGWEYRSSYYIMGPHWGQGTQVTVSS
B11: NRCoV2-S2G3 VHH (VHH)
VHH: QVQLVQSGGGSVQAGGSLRLSCAASGSTFGIFLMGWRRQAPGKQRELVAHITSGGATNYADSVKGRFTISRDNAKNTVYLQMNSLEPEDTAVYYCYTTKRDDASVYWGQGTQVTVSS
B12: NRCoV2-S2F3 VHH (VHH)
VHH: EVQLVQSGGGLVQAGGSLRLSCATSVRILSVPAMGWYRQAPGKEREMVAVITSGGSTNYADSVKGRFTISRDNAKNTVYLQMNSLKLEDTAVYQCNLRDILSQPFWGQGTQVTVSS
B13: NRCoV2-04 VHH (VHH)
VHH: AVQLVDSGGGLVQPGGSLRLSCAASGSPFSNVVMAWYRQAPGKQRERVAFISGGGIADYIMSVKGRFTISRDNAKNTVYLQMNSLKPEDTAVYYCWSSYESTWGQGTQVTVSS
B14: NRCoV2-02 VHH (VHH)
VHH: EVQLVESGGGLVQAGGSLRLSCAASGFTFSNYAMNWVRQAPGKGLEWVSGISGRGDDTRYADSVKGRFTISRDNAKNTLFLQMRSLRPEDTGVYRCTKGPDLYYFGSGYSDRGQGTQVTVSS
B15: NRCoV2-SR16 VHH (VHH)
VHH: QVQLVQSAGGLVQAGGSLRLSCVVSGTTFSRYHMGWHRQAPGKQRDFVAGISTSGAVTYADSAKGRFTISRDNAKNTVYLEMNSLKLEDTALYYCNTGGWDYRSSTFIMGLNWGQGTQVTVSS
B16: NRCoV2-S2G4 VHH (VHH)
VHH: QVQLVQSGGGLVQAGGSLTLSCAPSGSTFSGYATNWYRQAPGKQRELVATISSDGDKNYADSVKGRFTISRDNAKNTVYLQMNSLKPEDTAVYYCNKHWWTGDWWGQGTQVTVSS
B17: NRCoV2-06 VHH (VHH)
VHH: EVQLVQSGGGLVQAGESLRLSCAASVSTFSSYAMGWYRQAPGKQRELVASIGFVGATYYIDSVKGRFTISRDNAKKTAYLQMNDLKPDDTAVYYCNARHYGGSEYWGQGTQVTVSS
B18: NRCoV2-SR13 VHH (VHH)
VHH: EVQLVESGGGLVTTGGSLRLSCATSGSRFGSKHMAWYRQAPGKQRDLVAAISSGGSTHYGSSVKGRFTISRDNAKSTVYLQMNSLNPEDTAVFYCNMGGWDYRSNTYIPGSRSDYWGQGTQVTVSS
B19: NRCoV2-03 VHH (VHH)
VHH: EVQLVSSGGGLVQAGGSLRLSCTASGITFSYYAMGWYRQAPGQPRELVASMSNMDSTIYADSVKGRFTISRDNAKTTIYLQMNNLKPEDTAVYFCNIYGPTYSTRRNEYWGQGTQVTVSS

Target: T1, SARS-CoV-2 spike trimer S (Wuhan, SmT1) (SARS-CoV-2 Wuhan)
T1 construct: extracellular domain
Experiment: SPR, antigen on chip

| Binder | Kd | koff | kon |
| --- | --- | --- | --- |
| B1 | 1.72 nM | 0.00743 s⁻¹ | 4.33e+06 M⁻¹ s⁻¹ |
| B2 | 12.8 nM | 0.000446 s⁻¹ | 34900 M⁻¹ s⁻¹ |
| B3 | 0.59 nM | 0.000571 s⁻¹ | 967000 M⁻¹ s⁻¹ |
| B4 | 0.14 nM | 0.000335 s⁻¹ | 2.39e+06 M⁻¹ s⁻¹ |
| B5 | 1.15 nM | 0.000403 s⁻¹ | 350000 M⁻¹ s⁻¹ |
| B6 | 0.384 nM | 0.000152 s⁻¹ | 395000 M⁻¹ s⁻¹ |
| B7 | 6.73 nM | 0.0159 s⁻¹ | 2.37e+06 M⁻¹ s⁻¹ |
| B8 | 1.1 nM | 0.00117 s⁻¹ | 1.06e+06 M⁻¹ s⁻¹ |
| B9 | 0.445 nM | 0.00123 s⁻¹ | 2.77e+06 M⁻¹ s⁻¹ |
| B10 | 1.01 nM | 0.00102 s⁻¹ | 1.01e+06 M⁻¹ s⁻¹ |
| B11 | 3.74 nM | 0.000607 s⁻¹ | 162000 M⁻¹ s⁻¹ |
| B12 | 3.03 nM | 0.000473 s⁻¹ | 156000 M⁻¹ s⁻¹ |
| B13 | 10 nM | 0.0198 s⁻¹ | 1.97e+06 M⁻¹ s⁻¹ |
| B14 | 0.661 nM | 0.00141 s⁻¹ | 2.14e+06 M⁻¹ s⁻¹ |
| B15 | 1.82 nM | 0.0012 s⁻¹ | 657000 M⁻¹ s⁻¹ |
| B16 | 0.232 nM | 0.000207 s⁻¹ | 893000 M⁻¹ s⁻¹ |
| B17 | 155 nM | 0.00469 s⁻¹ | 30200 M⁻¹ s⁻¹ |
| B18 | 2.62 nM | 0.00481 s⁻¹ | 1.83e+06 M⁻¹ s⁻¹ |
| B19 | 1.34 nM | 0.000334 s⁻¹ | 250000 M⁻¹ s⁻¹ |

Target: SARS-CoV-2 S1-RBD fused to human Fc (S1-RBD-Fc) (SARS-CoV-2 Wuhan; human)
Experiment: SPR, antigen on chip

| Binder | Kd | koff | kon |
| --- | --- | --- | --- |
| B1 | 2.33 nM | 0.00585 s⁻¹ | 2.51e+06 M⁻¹ s⁻¹ |
| B5 | 0.894 nM | 0.000284 s⁻¹ | 318000 M⁻¹ s⁻¹ |
| B6 | 0.736 nM | 0.000197 s⁻¹ | 268000 M⁻¹ s⁻¹ |
| B7 | 8.61 nM | 0.0123 s⁻¹ | 1.43e+06 M⁻¹ s⁻¹ |
| B8 | 2.1 nM | 0.00118 s⁻¹ | 562000 M⁻¹ s⁻¹ |
| B13 | 12.5 nM | 0.0192 s⁻¹ | 1.53e+06 M⁻¹ s⁻¹ |
| B14 | 0.773 nM | 0.00141 s⁻¹ | 1.83e+06 M⁻¹ s⁻¹ |
| B17 | 69.9 nM | 0.00415 s⁻¹ | 59400 M⁻¹ s⁻¹ |
| B19 | 1.53 nM | 0.000255 s⁻¹ | 166000 M⁻¹ s⁻¹ |

Target: T2, SARS-CoV-2 S2 (aa686-1208) (Wuhan) (SARS-CoV-2 Wuhan, UniProt P0DTC2 686-1208)
T2 construct: NRC; FLAG, 6xHis tags
Experiment: SPR, antigen on chip

| Binder | binding result | Kd | koff | kon |
| --- | --- | --- | --- | --- |
| B1 | no binding | – | – | – |
| B2 | – | 14.7 nM | 0.000414 s⁻¹ | 28100 M⁻¹ s⁻¹ |
| B3 | no binding | – | – | – |
| B4 | no binding | – | – | – |
| B5 | no binding | – | – | – |
| B6 | no binding | – | – | – |
| B7 | no binding | – | – | – |
| B8 | no binding | – | – | – |
| B9 | no binding | – | – | – |
| B10 | no binding | – | – | – |
| B11 | – | 4.28 nM | 0.000627 s⁻¹ | 147000 M⁻¹ s⁻¹ |
| B12 | – | 6.22 nM | 0.000629 s⁻¹ | 101000 M⁻¹ s⁻¹ |
| B13 | no binding | – | – | – |
| B14 | no binding | – | – | – |
| B15 | no binding | – | – | – |
| B16 | – | 0.413 nM | 0.000382 s⁻¹ | 925000 M⁻¹ s⁻¹ |
| B17 | no binding | – | – | – |
| B18 | no binding | – | – | – |
| B19 | no binding | – | – | – |

Target: T3, SARS-CoV-2 S1 (aa16-685) (Wuhan) (SARS-CoV-2 Wuhan, UniProt P0DTC2 16-685)
T3 construct: NRC; FLAG, 6xHis tags
Experiment: SPR, antigen on chip

| Binder | Kd | koff | kon | binding result |
| --- | --- | --- | --- | --- |
| B1 | 2 nM | 0.00806 s⁻¹ | 4.03e+06 M⁻¹ s⁻¹ | – |
| B2 | – | – | – | no binding |
| B3 | 0.53 nM | 0.000555 s⁻¹ | 1.05e+06 M⁻¹ s⁻¹ | – |
| B4 | 0.226 nM | 0.000493 s⁻¹ | 2.18e+06 M⁻¹ s⁻¹ | – |
| B5 | 1.02 nM | 0.000308 s⁻¹ | 301000 M⁻¹ s⁻¹ | – |
| B6 | 0.536 nM | 0.000165 s⁻¹ | 308000 M⁻¹ s⁻¹ | – |
| B7 | 9.63 nM | 0.0189 s⁻¹ | 1.96e+06 M⁻¹ s⁻¹ | – |
| B8 | 1.32 nM | 0.00114 s⁻¹ | 867000 M⁻¹ s⁻¹ | – |
| B9 | 0.437 nM | 0.00158 s⁻¹ | 3.63e+06 M⁻¹ s⁻¹ | – |
| B10 | 1.13 nM | 0.00103 s⁻¹ | 905000 M⁻¹ s⁻¹ | – |
| B11 | – | – | – | no binding |
| B12 | – | – | – | no binding |
| B13 | 11.2 nM | 0.018 s⁻¹ | 1.61e+06 M⁻¹ s⁻¹ | – |
| B14 | 0.659 nM | 0.00138 s⁻¹ | 2.1e+06 M⁻¹ s⁻¹ | – |
| B15 | 1.55 nM | 0.00115 s⁻¹ | 739000 M⁻¹ s⁻¹ | – |
| B16 | – | – | – | no binding |
| B17 | 129 nM | 0.0133 s⁻¹ | 104000 M⁻¹ s⁻¹ | – |
| B18 | 2.43 nM | 0.00545 s⁻¹ | 2.25e+06 M⁻¹ s⁻¹ | – |
| B19 | 1.09 nM | 0.000263 s⁻¹ | 241000 M⁻¹ s⁻¹ | – |
